For the experiment, the target named is T1, RGD-decorated Fc-dextran-MMAE construct 20 (cyclo[RGDfK] multimer) (also: multivalent on dextran conjugated to aglycosylated human Fc N297A with MMAE).
T1 chain: cyclo(RGD[dF]K([Propanoyl(3-triazol-4-yl)-dextran]))
As to the kind of experiment: flow cytometry cell binding (apparent KD). Background: A flow cytometer gives signals particle by particle.

Numbered stars: 1 amine (or outer) side, 2 acyl side, 3 side chain; on linkers, the order of the positions; unused ones are H or OH. Square brackets hold non-standard residues; d marks the D form. Side chains are listed from the residue outwards. dextran = polysaccharide of α-(1–6)-linked D-glucose units with low branching; Propanoyl(3-triazol-4-yl) = O=C(CCc1cn([*:1])nn1)[*:2]

B1: integrin alpha-v beta-3 (on U87MG cells) (protein)
chain 1: FNLDVDSPAEYSGPEGSYFGFAVDFFVPSASSRMFLLVGAPKANTTQPGIVEGGQVLKCDWSSTRRCQPIEFDATGNRDYAKDDPLEFKSHQWFGASVRSKQDKILACAPLYHWRTEMKQEREPVGTCFLQDGTKTVEYAPCRSQDIDADGQGFCQGGFSIDFTKADRVLLGGPGSFYWQGQLISDQVAEIVSKYDPNVYSIKYNNQLATRTAQAIFDDSYLGYSVAVGDFNGDGIDDFVSGVPRAARTLGMVYIYDGKNMSSLYNFTGEQMAAYFGFSVAATDINGDDYADVFIGAPLFMDRGSDGKLQEVGQVSVSLQRASGDFQTTKLNGFEVFARFGSAIAPLGDLDQDGFNDIAIAAPYGGEDKKGIVYIFNGRSTGLNAVPSQILEGQWAARSMPPSFGYSMKGATDIDKNGYPDLIVGAFGVDRAILYRARPVITVNAGLEVYPSILNQDNKTCSLPGTALKVSCFNVRFCLKADGKGVLPRKLNFQVELLLDKLKQKGAIRRALFLYSRSPSHSKNMTISRGGLMQCEELIAYLRDESEFRDKLTPITIFMEYRLDYRTAADTTGLQPILNQFTPANISRQAHILLDCGEDNVCKPKLEVSVDSDQKKIYIGDDNPLTLIVKAQNQGEGAYEAELIVSIPLQADFIGVVRNNEALARLSCAFKTENQTRQVVCDLGNPMKAGTQLLAGLRFSVHQQSEMDTSVKFDLQIQSSNLFDKVSPVVSHKVDLAVLAAVEIRGVSSPDHVFLPIPNWEHKENPETEEDVGPVVQHIYELRNNGPSSFSKAMLHLQWPYKYNNNTLLYILHYDIDGPMNCTSDMEINPLRIKISSLQTTEKNDTVAGQGERDHLITKRDLALSEGDIHTLGCGVAQCLKIVCQVGRLDRGKSAILYVKSLLWTETFMNKENQNHSYSLKSSASFNVIEFPYKNLPIEDITNSTLVTTNVTWGIQPAPMPV
chain 2: GPNICTTRGVSSCQQCLAVSPMCAWCSDEALPLGSPRCDLKENLLKDNCAPESIEFPVSEARVLEDRPLSDKGSGDSSQVTQVSPQRIALRLRPDDSKNFSIQVRQVEDYPVDIYYLMDLSYSMKDDLWSIQNLGTKLATQMRKLTSNLRIGFGAFVDKPVSPYMYISPPEALENPCYDMKTTCLPMFGYKHVLTLTDQVTRFNEEVKKQSVSRNRDAPEGGFDAIMQATVCDEKIGWRNDASHLLVFTTDAKTHIALDGRLAGIVQPNDGQCHVGSDNHYSASTTMDYPSLGLMTEKLSQKNINLIFAVTENVVNLYQNYSELIPGTTVGVLSMDSSNVLQLIVDAYGKIRSKVELEVRDLPEELSLSFNATCLNNEVIPGLKSCMGLKIGDTVSFSIEAKVRGCPQEKEKSFTIKPVGFKDSLIVQVTFDCDCACQAQAEPNSHRCNNGNGTFECGVCRCGPGWLGSQCECSEEDYRPSQQDECSPREGQPVCSQRGECLCGQCVCHSSDFGKITGKYCECDDFSCVRYKGEMCSGHGQCSCGDCLCDSDWTGYYCNCTTRTDTCMSSNGLLCSGRGKCECGSCVCIQPGSYGDTCEKCPTCPDACTFKKECVECKKFDRGALHDENTCNRYCRDEIESVKELKDTGKDAVNCTYKNEDDCVVRFQYYEDSSGKSILYVVEEPECPKGPD
B1: the Kd is 33 nM.

Source of the values: article PMC8339797 (2021).
